In US20230399390A1:

What was measured:
rat Nogo-A (rat) = rat Nogo-A (rat) (UniProt Q9JK11); assay: cell-based or functional assay
[1] = biological target: human Nogo-A d20plus region (human aa position 543-866), recombinantly produced in E. coli (human) (UniProt Q9NQC3); assay: ELISA, coated d20plus (human, as read from the context), internal standard
Chain of human Nogo-A d20plus region (human aa position 543-866), recombinantly produced in E. coli (human) (Q9NQC3 543-866 limits assumed): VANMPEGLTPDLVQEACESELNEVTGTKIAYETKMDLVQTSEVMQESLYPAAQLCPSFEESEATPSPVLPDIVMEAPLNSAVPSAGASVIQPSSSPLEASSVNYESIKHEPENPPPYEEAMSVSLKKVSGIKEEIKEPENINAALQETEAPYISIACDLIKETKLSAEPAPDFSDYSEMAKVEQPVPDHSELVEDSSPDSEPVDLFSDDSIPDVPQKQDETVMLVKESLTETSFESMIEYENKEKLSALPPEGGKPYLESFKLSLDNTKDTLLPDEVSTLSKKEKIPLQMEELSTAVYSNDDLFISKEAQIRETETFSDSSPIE

Chain of rat Nogo-A (rat) (Q9JK11 whole entry): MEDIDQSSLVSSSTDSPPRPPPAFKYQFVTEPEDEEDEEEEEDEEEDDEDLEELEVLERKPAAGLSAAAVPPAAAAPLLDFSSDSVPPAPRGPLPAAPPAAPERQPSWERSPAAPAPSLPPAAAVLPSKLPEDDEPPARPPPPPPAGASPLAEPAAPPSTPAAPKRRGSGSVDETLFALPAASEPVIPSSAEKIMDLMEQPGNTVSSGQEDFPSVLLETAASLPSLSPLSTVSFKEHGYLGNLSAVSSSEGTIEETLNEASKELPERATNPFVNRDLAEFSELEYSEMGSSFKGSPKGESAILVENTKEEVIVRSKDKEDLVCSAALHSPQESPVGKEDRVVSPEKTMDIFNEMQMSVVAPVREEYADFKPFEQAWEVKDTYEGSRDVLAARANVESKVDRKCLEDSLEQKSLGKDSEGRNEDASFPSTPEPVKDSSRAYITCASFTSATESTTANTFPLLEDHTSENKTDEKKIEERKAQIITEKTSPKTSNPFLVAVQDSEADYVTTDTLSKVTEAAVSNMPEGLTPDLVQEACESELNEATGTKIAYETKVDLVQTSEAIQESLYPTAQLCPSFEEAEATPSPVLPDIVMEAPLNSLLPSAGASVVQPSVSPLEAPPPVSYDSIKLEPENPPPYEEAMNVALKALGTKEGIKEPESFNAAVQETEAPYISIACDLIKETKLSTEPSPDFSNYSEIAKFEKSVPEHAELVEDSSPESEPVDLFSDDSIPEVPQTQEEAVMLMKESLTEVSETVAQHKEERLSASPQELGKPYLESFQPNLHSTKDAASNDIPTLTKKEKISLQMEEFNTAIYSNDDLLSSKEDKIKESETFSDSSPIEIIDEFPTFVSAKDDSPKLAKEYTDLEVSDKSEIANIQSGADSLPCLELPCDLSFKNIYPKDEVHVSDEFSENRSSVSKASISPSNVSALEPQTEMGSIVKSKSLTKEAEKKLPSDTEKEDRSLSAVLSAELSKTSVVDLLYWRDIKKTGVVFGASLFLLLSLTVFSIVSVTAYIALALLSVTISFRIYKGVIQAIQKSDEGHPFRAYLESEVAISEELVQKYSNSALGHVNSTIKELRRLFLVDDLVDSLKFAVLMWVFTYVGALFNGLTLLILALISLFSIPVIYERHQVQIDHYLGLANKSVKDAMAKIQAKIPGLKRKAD

IC50 for stimulating neurite outgrowth of N1E-115 cells in presence of rat CNS extract (rat Nogo-A (rat)): 19.3 nM
EC50 [1]: 0.14 nM
Substance: murine monoclonal anti-Nogo-A antibody 11C7
